Measurements from PMC12098658, “JMY powers dendritogenesis and is regulated by CaM revealing a general, critical principle in neuromorphogenesis” (Communications Biology, 2025).

What was measured:
Conditions in all cases: both partners purified
Sepharose 4B-coupled CaM = target: T1, Sepharose 4B-coupled CaM (UniProt P0DP23 1-149, coupled to Sepharose 4B); assay: pull-down; purified GST-JMY WH2#1 or GST with immobilised CaM; IP buffer with 150 mM NaCl and 2 µM Ca2+ (1 mM EGTA for comparison); immunoblot
T1 construct: calmodulin (CaM), bought coupled to Sepharose 4B; also called immobilized CaM; CaM matrix; source: bought: GE Healthcare (coupled to Sepharose 4B)

[1] = target: rabbit skeletal muscle actin (rabbit, UniProt P68135 1-377); assay: pull-down; in vitro reconstitution: GST-JMY WH2#1 immobilised, untagged CaM and rabbit skeletal muscle α-actin together; 10 mM HEPES pH 7.4, 250 mM NaCl, 0.1 mM MgCl2, 1% Triton X-100, with 1 mM EGTA or 20 µM Ca2+; quantitative fluorescence immunoblot
untagged recombinant CaM = target: T2, untagged recombinant CaM (UniProt P0DP23 1-149); assay: as above
T2 construct: calmodulin (CaM), subcloned from Mito-mCherry-CaM into pGEX-6P; A few vector residues probably remain after PreScission cleavage; also called calmodulin; source: E. coli BL21, purified as GST-CaM (pGEX-6P), GST removed with PreScission Protease

Measured: binding result

B1: GST-JMY WH2#1 (domain or fragment)
chain: GNERSIPKSASAPAAHLFDSSQLVSARKKLRKTVEGLQRRRVS
notes: Mus musculus JMY, NP_067285.2, residues 841-883 (subcloned from GFP-JMY WH2#1 into pGEX-4T1); pGEX-4T1 by surmise puts GST at the N-terminus; also called first WH2 domain of JMY and flanking regions; source: E. coli BL21, purified (glutathione sepharose)
binds: Sepharose 4B-coupled CaM | [1] | untagged recombinant CaM
